Drawing on article doi:10.1101/2023.03.27.534416 (bioRxiv, 2023), this text covers Kd for one protein.

A word on the Kd: it is the concentration at which binding is half-saturated. Read a low Kd as tighter binding.

The data set deals with the molecule itself. The data set can be described thus: MST.

B1: MRE11 structured-domain (1-411 aa) (domain or fragment, UniProt P49959 1-411, looked up)
chain: MSTADALDDENTFKILVATDIHLGFMEKDAVRGNDTFVTLDEILRLAQENEVDFILLGGDLFHENKPSRKTLHTCLELLRKYCMGDRPVQFEILSDQSVNFGFSKFPWVNYQDGNLNISIPVFSIHGNHDDPTGADALCALDILSCAGFVNHFGRSMSVEKIDISPVLLQKGSTKIALYGLGSIPDERLYRMFVNKKVTMLRPKEDENSWFNLFVIHQNRSKHGSTNFIPEQFLDDFIDLVIWGHEHECKIAPTKNEQQLFYISQPGSSVVTSLSPGEAVKKHVGLLRIKGRKMNMHKIPLHTVRQFFMEDIVLANHPDIFNPDNPKVTQAIQSFCLEKIEEMLENAERERLGNSHQPEKPLVRLRVDYSGGFEPFSVLRFSQKFVDRVANPKDIIHFFRHREQKEKTGEE
modifications: amine-reactive AlexaFluor-647 dye on the labelled copy; the titrated copy is unlabelled
Consider B1, for which the Kd came to 370 ± 80 nM.
